Reference: US8044021B2, “Sustained release of apo A-I mimetic peptides and methods of treatment” (Abbott Cardiovascular Systems Inc., priority 2007, dated 2011)
Blank lines part the entries; values can stand above or below the compound they belong to. Ends that are not written are not given here.

What was measured:
[1] = system: reverse cholesterol transport; details: cited from earlier work
[2] = circular dichroism (CD) spectra, calculated percent secondary structure; type: physicochemical
[3] = CD spectra after heating then cooling; type: physicochemical; details: 25° C., heated to 70° C., cooled back to 25° C.; 0.0625-0.5 mg/mL
Procedure: As shown in each chart (vii) through (x), a CD spectrum of the mimetic peptide was obtained at t1=25° C., then heated to t2=70° C., then cooled back to t3=25° C. for varying concentrations, e.g., 0.5 mg/mL mimetic peptide, 0.25 mg/mL mimetic peptide, 0.125 mg/mL mimetic peptide, and 0.0625 mg/mL mimetic peptide. The spectrums at t and t3 show a substantially identical spectrum for each of t1 and t3 at the various concentrations, thus indicating the mimetic peptide's secondary structure change is reversible when subjected to heat.

[4] = turbidity change of DMPC multilamellar vesicles (MLV) after mixing with peptide; type: physicochemical
Procedure: A mimetic peptide, SEQ ID NO: 4, was mixed with multilamellar vesicles comprised of DMPC. A DMPC chloroform solution was gently dried by nitrogen stream in the fume hood or by rotor evaporator. Resultant lipid film was further dried in vacuum desiccators and subjected to vacuum for at least 3 hours to remove residual chloroform. Phosphate buffered saline (PBS) was added to the lipid film and mixed using a vortex mixer to prepare an MLV suspension (2.5 mg/mL). The peptide was dissolved in PBS (1 mg/mL) then mixed with the same volume of MLV suspension at room temperature. […] At 0.5 mg/mL mimetic peptide in solution, the absorbance at 400 nm is zero. At 1.25 mg/mL DMPC in solution, the absorbance at 400 nm is 0.1. When the two solutions are combined and after approximately 5 minutes of mixing, the absorbance begins to approach zero. After approximately 15 minutes of mixing, the solution becomes completely clear, i.e., the absorbance is zero, thus evidencing mimetic peptide/phospholipid complexing.

Compound: PALEDLRQGLLPVLESFKVFLSALEEYTKKLNTQ [33-mer peptide mimetic]
- need of phospholipid complex for effective reverse cholesterol transport [1]: requires phospholipid complex formation

Compound: DWFKAFYDKVAEKFKEAF (not fully specified) [D-4F, 18-mer apo A-I mimetic peptide 4F, D enantiomer]
- reverse cholesterol transport in vitro ([1]; when a phospholipid complex is presented): function more effectively
- reverse cholesterol transport ([1]; without a lipid complex): effective

Compound: Ac-DWFKAFYDKVAEKFKEAF-NH2 [SEQ ID NO: 4, 18-mer peptide, 4F, N-acetyl, C-amide]
- alpha helicity ([2]; 0.125 mg/mL mimetic peptide): 10.5%
- alpha helicity ([2]; 0.25 mg/mL mimetic peptide): 16%
- alpha helicity ([2]; 0.5 mg/mL mimetic peptide): 19.5%
- secondary structure change when subjected to heat [3]: reversible
- absorbance at 400 nm ([4]; 0.5 mg/mL mimetic peptide in solution (PBS)): zero

- absorbance at 400 nm ([4]; 1.25 mg/mL DMPC in solution (MLV in PBS)): 0.1
Compound: CCCCCCCCCCCCCC(=O)OC[C@H](COP(=O)([O-])OCC[N+](C)(C)C)OC(=O)CCCCCCCCCCCCC [DMPC, dimyristoylphosphatidylcholine, reference compound]
